Reference: patent JP2011219380A (dated 2011)

B1: ヒト化VE48抗体(H鎖:VE48HA、L鎖:VE48L6) (antibody, human IgG1, kappa, V domains shown)
VH: QVTLKESGPALVKPTQTLTLTCTFSGFSLSTYGMGVGWIRQPPGKALEWLANIWWNDDKYYNPVLRSRLTISKDTSKNQVVLTMTNMDPVDTATYYCVQVTNPFVFWGQGTLVTVSS
VL: DIVMTQTPLSLPVTPGEPASISCRSSQSLVHINGNTYLHWYLQKPGQSPQLLIYKVSNRFSGVPDRFSGSGSGTDFTLKISRVEAEDVGVYFCSQSTHVPWTFGGGTKVEIKR
notes: also called 48HA/48L6; HA/L6
B2: ヒト化VE199抗体(H鎖:VE199HA、L鎖:VE199LA) (antibody, human IgG1, kappa, V domains shown)
VH: QVQLVQSGPEVKKPGASVKVSCKASGYTFTGYNMHWVRQAPGQGLEWMGYIDPYNGDTYYNQKFQDRVTLTVDKSTSTAYMELSSLRSEDTAVYYCIRAGYYAMDYWGQGTLVTVSS
VL: DIVMTQTPLSLPVTPGEPASISCRSSQSLVHINGNTYLHWYLQKPGQSPQLLIYKVSNRFSGVPDRFSGSGSGTDFTLKISRVEAEDVGVYFCSQGTHVPRTFGGGTKVEIKR
notes: also called VE199HALA
B3: ヒト化抗体VE48抗体(48HK/48L6) (antibody, V domains shown)
VH: QVTLKESGPALVKPTQTLTLTCTFSGFSLSTYGMGVGWIRQPPGKALEWLANIWWNDDKYYNPVLRSRLTISKDTSKNQVVLTMTNMDPVDTATYYCVQVTNPFVFWGEGTLVTVSS
VL: DIVMTQTPLSLPVTPGEPASISCRSSQSLVHINGNTYLHWYLQKPGQSPQLLIYKVSNRFSGVPDRFSGSGSGTDFTLKISRVEAEDVGVYFCSQSTHVPWTFGGGTKVEIKR
notes: The light chain is VE48L6; also called VE48HK/VE48L6
B4: ヒト化抗体VE48抗体(48H18/48L6) (antibody, V domains shown)
VH: QVTLKESGPALVKPTQTLTLTCTFSGFSLSDYGMGVGWIRQPPGKALEWLANIWWEDDKYYNPVLRSRLTISKDTSKNQVVLTMTNMDPVDTATYYCVQVTNPFVFWGEGTLVTVSS
VL: DIVMTQTPLSLPVTPGEPASISCRSSQSLVHINGNTYLHWYLQKPGQSPQLLIYKVSNRFSGVPDRFSGSGSGTDFTLKISRVEAEDVGVYFCSQSTHVPWTFGGGTKVEIKR
notes: The light chain is VE48L6; also called VE48H18/VE48L6
B5: ヒト化抗体VE48抗体(48HJ/48L6) (antibody, V domains shown)
VH: QVTLKESGPALVKPTQTLTLTCTFSGFSLSTYGMGVGWIRQPPGKALEWLANIWWNDDKYYNPVLQDRLTISKDTSKNQVVLTMTNMDPVDTATYYCVQVTNPFVFWGQGTLVTVSS
VL: DIVMTQTPLSLPVTPGEPASISCRSSQSLVHINGNTYLHWYLQKPGQSPQLLIYKVSNRFSGVPDRFSGSGSGTDFTLKISRVEAEDVGVYFCSQSTHVPWTFGGGTKVEIKR
notes: The light chain is VE48L6; also called VE48HJ/VE48L6
B6: HA/L14(H鎖:VE48HA、L鎖:VE48L14) (antibody, human IgG1, kappa, V domains shown)
VH: QVTLKESGPALVKPTQTLTLTCTFSGFSLSTYGMGVGWIRQPPGKALEWLANIWWNDDKYYNPVLRSRLTISKDTSKNQVVLTMTNMDPVDTATYYCVQVTNPFVFWGQGTLVTVSS
VL: DIVMTQTPLSLPVTPGEPASISCRSSQSLVHIKGNTYLHWYLQKPGQSPQLLIYKVSNRFSGVPDRFSGSGSGTDFTLKISRVEAEDVGVYFCSQSTHVPWTFGGGTKVEIKR
notes: also called 48HA/48L14
B7: ヒト化抗体VE48抗体(48H16/48L6) (antibody, V domains shown)
VH: QVTLKESGPALVKPTQTLTLTCTFSGFSLSDYGMGVGWIRQPPGKALEWLANIWWNDDKYYNPVLRSRLTISKDTSKNQVVLTMTNMDPVDTATYYCVQVTNPFVFWGEGTLVTVSS
VL: DIVMTQTPLSLPVTPGEPASISCRSSQSLVHINGNTYLHWYLQKPGQSPQLLIYKVSNRFSGVPDRFSGSGSGTDFTLKISRVEAEDVGVYFCSQSTHVPWTFGGGTKVEIKR
notes: The light chain is VE48L6; also called VE48H16/VE48L6
B8: ヒト化抗体VE48抗体(48H17/48L6) (antibody, V domains shown)
VH: QVTLKESGPALVKPTQTLTLTCTFSGFSLSTYGMGVGWIRQPPGKALEWLANIWWEDDKYYNPVLRSRLTISKDTSKNQVVLTMTNMDPVDTATYYCVQVTNPFVFWGEGTLVTVSS
VL: DIVMTQTPLSLPVTPGEPASISCRSSQSLVHINGNTYLHWYLQKPGQSPQLLIYKVSNRFSGVPDRFSGSGSGTDFTLKISRVEAEDVGVYFCSQSTHVPWTFGGGTKVEIKR
notes: The light chain is VE48L6; also called VE48H17/VE48L6
B9: ヒト化抗体VE48抗体(48HI/48L6) (antibody, V domains shown)
VH: QVTLKESGPALVKPTQTLTLTCTFSGFSLSDYGMGVGWIRQPPGKALEWLANIWWNDDKYYNPVLRSRLTISKDTSKNQVVLTMTNMDPVDTATYYCVQVTNPFVFWGQGTLVTVSS
VL: DIVMTQTPLSLPVTPGEPASISCRSSQSLVHINGNTYLHWYLQKPGQSPQLLIYKVSNRFSGVPDRFSGSGSGTDFTLKISRVEAEDVGVYFCSQSTHVPWTFGGGTKVEIKR
notes: The light chain is VE48L6; also called VE48HI/VE48L6
B10: ヒト化抗体VE48抗体(48HH/48L6) (antibody, V domains shown)
VH: QVTLKESGPALVKPTQTLTLTCTFSGFSLSTYGMGVGWIRQPPGKALEWLANIWWEDDKYYNPVLRSRLTISKDTSKNQVVLTMTNMDPVDTATYYCVQVTNPFVFWGQGTLVTVSS
VL: DIVMTQTPLSLPVTPGEPASISCRSSQSLVHINGNTYLHWYLQKPGQSPQLLIYKVSNRFSGVPDRFSGSGSGTDFTLKISRVEAEDVGVYFCSQSTHVPWTFGGGTKVEIKR
notes: The light chain is VE48L6; also called VE48HH/VE48L6
B11: VE29キメラ抗体 (antibody, human IgG1, V domains shown)
VH: DVQLQESGPGLVKPSQTVSLTCTVTGYSITNRYHWWNWIRQVSGNKLEWIGYISYSGDTVSNPSLKSRISITRDTSKNQLFLQLNSVTTEDIATYYCARDGGIYFDYWGQGTTLTVSS
VL: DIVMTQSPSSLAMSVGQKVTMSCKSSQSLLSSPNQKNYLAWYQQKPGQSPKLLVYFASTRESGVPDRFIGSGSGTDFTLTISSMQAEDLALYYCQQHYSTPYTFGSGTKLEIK
notes: also called キメラVE29; chimeric VE29
B12: VE199キメラ抗体 (antibody, human IgG1, V domains shown)
VH: EVQLQQSGPELVKPGASVKMSCKASGYSFTGYNMHWVKQSHGRSLEWIGYIDPYNGDTYYNQKFRDKATLTVDKSSSTAYMQLNSLTSEDSALYYCIRAGYYAMDYWGQGTSVTVSS
VL: DIVMTQTPLSLPVSLGDQASISCRSSQSLVHINGNTYLHWYLQKPGQSPKLLIYKVSNRFSGVPDRFSGSGSGTDFTLKISRVEAEDLGVYFCSQGTHVPRTFGGGTKLEIN
notes: also called キメラVE199; chimeric VE199

Molecular target: T1, 成熟型ヒトVEGF-D(Hisタッグ付加、二量体、参考例3) (human, UniProt O43915 93-201)
T1 construct: also called human VEGF-D; not shown: His tag
T1 sequence: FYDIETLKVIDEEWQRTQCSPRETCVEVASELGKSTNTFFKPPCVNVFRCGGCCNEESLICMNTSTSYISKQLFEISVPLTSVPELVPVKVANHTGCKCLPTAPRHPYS
Assay: competition cell ELISA, inhibition of human VEGF-D binding to human VEGFR-3 CHO cells, against chimeric VE48

Binding result, binds:
B1, B2, B3, B4, B5, B6, B7, B8, B9, B10

Molecular target: T1, 成熟型ヒトVEGF-D(Hisタッグ付加、二量体、参考例3)
Assay: competition cell ELISA, antibody titrated against 2.5 ug/mL human VEGF-D on human VEGFR-3 CHO cells

Binding result, binds:
B11, B12

Molecular target: T2, 成熟型カニクイザルVEGF-D(Hisタッグ付加、二量体、参考例3) (cynomolgus monkey, UniProt O43915 93-201 (human entry))
T2 construct: also called cynomolgus VEGF-D; not shown: His tag
T2 chain: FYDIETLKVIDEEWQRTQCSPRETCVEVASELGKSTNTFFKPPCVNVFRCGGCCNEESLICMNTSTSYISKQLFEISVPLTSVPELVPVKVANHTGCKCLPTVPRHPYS
Assay: competition cell ELISA, antibody titrated against 2.5 ug/mL cynomolgus VEGF-D on cynomolgus VEGFR-3 CHO cells

Binding result, binds:
B12
